Legend:
[1] = biological target: His-tagged BRISC labelled with RED-tris-NTA dye (human) (UniProt P46736); experiment: spectral shift (Dianthus); as a16, labelled His-BRISC first incubated with 100 uM FX-171-C (1% DMSO) for 15 min at RT
[2] = biological target: His-tagged BRISC labelled with RED-tris-NTA dye (human) (UniProt P46736); experiment: spectral shift (Dianthus); as a16, labelled His-BRISC first incubated with 100 uM JMS-175-2 (1% DMSO) for 15 min at RT
[3] = biological target: His-tagged BRISC labelled with RED-tris-NTA dye (human) (UniProt P46736); experiment: spectral shift (Dianthus); 12.5 nM RED-tris-NTA labelled His-BRISC, SHMT2(A285T) titrated 46 uM to 1.4 nM, no compound (1% DMSO); 25 mM HEPES pH 7.5, 150 mM NaCl, 1 mM DTT, 0.005% Tween-20, 25 °C; one-site total binding

KD after incubation with FX-171-C [1]: 3600 nM
KD after incubation with JMS-175-2 [2]: 700 nM
Kd [3]: 400 nM
Substance: SHMT2ΔN(A285T) (residues 18–504) (from UniProt P34897 18-504) (enzyme)
